Patent publication US12611470B2, “Chromatin-opening element for stable long term gene expression” (CZ Biohub SF, LLC, priority 2019, dated 2026)

Tests used:
[1] = system: P19 murine embryonic carcinoma stem cell line; experiment: Stable transfection silencing screen of candidate UCOEs linked to Ef1α-GFP; assay type: cell-based, mouse; settings: UCOE-Ef1α-GFP stable transfection
Protocol: The candidate regions tested were Candidates 1, 1R, 3, 5, 6, 6R, 7, 8, 9R, 10, and 10R, with “R” denoting that the reverse orientation of the candidate region was tested. As a negative control, the stable expression construct without a UCOE or candidate region was assessed (Ef1a). As a positive control, the 2.2 kB A2UCOE sequence, as well as the 1.2 kB reverse orientation sequence 3′UCOE, were cloned into the same reporter construct as the candidate sequences. The percent GFP positive in the population was monitored as a metric for silencing by flow cytometry analysis with each passage, with the change (difference between final and initial time points) plotted on the graph (Δ% GFP+).
The assay is the same stable transfection screen format described for FIG. 2B. […]
Fluorescence data throughout silencing experiments was obtained using a MACSQuant® VYB flow cytometer (Miltenyi Biotec). EGFP was measured through the 488-nm laser and 525/50 nm band pass filter. Flow cytometry data was analyzed using the FlowJo™ single cell flow cytometry analysis software (Tree Star). […]
Candidates were initially screened in the P19 murine embryonic carcinoma stem cell line. […] As P19 cells readily integrate DNA, a stable transfection of the expression construct performed. […]

P19 cells = experiment: Standalone (intrinsic) promoter activity screen, UCOE-GFP construct lacking the Ef1a promoter; assay type: cell-based, mouse; settings: for inherent promoter activity: synthetic construct without other promoter
Description: A schematic representation of the expression construct in which the candidate region (UCOE) is inserted upstream of the GFP gene in the absence of any other promoter sequences as used is shown as an inlay. As positive controls, the Ef1α promoter, the 2.2 kB A2UCOE sequence, and the 1.2 kB reverse orientation sequence 3′UCOE, were cloned into the same reporter construct as the candidate sequences. The percent GFP positive in the population was monitored as a metric for gene expression by flow cytometry analysis with each passage (% GFP). Stably transfected cells were assayed for % GFP+ and median fluorescent intensity (normalized to Ef1a promoter control). Data is reported as mean±SD from biological duplicates.
P19 cells were seeded at 25,000 cells/well in 12 well plates. 24 h after seeding, cells were transfected using Lipofectamine™ 2000 transfection reagent (Thermo Fisher) according to the manufacturer's instructions using 500 ng DNA/well and 2.5 μL of Lipofectamine per well. 24 hours after transfection, selection was initiated with 1 μg/mL puromycin (Sigma-Aldrich) in regular growth media and, from then on, cells were passaged at 1:15 or 1:20 dilutions whenever cells were 80-90% confluent (every 2-3 days) with frequent refreshing of puromycin-containing media to clear dead cells. After approximately 14-16 days, remaining cells were assumed to be stably transfected and were changed to regular growth media to initiate silencing experiments. During silencing experiments, the P19 cells were passaged every 2-3 days and re-seeded at 15,000 cells/well.
Fluorescence data throughout silencing experiments was obtained using a MACSQuant® VYB flow cytometer (Miltenyi Biotec). EGFP was measured through the 488-nm laser and 525/50 nm band pass filter. Flow cytometry data was analyzed using the FlowJo™ single cell flow cytometry analysis software (Tree Star). After being gated for singlets and viability, GFP+ gates in FlowJo were drawn such that a non-transfected or non-transduced P19 cell population was at 1% GFP+. Median values reported are of cells within the GFP+ gate, both % GFP positive and median are reported with the standard deviation of biological replicates.
As A2UOCE dually functions as a protective regulatory element and a universal promoter, the candidate UCOEs were further screened for standalone promoter activity. A similar experiment as the aforementioned screen was performed using a similar expression construct that lacked the Ef1a promoter. This construct was used to assess whether the candidate sequences could drive reporter expression and act as stand-alone functional promoters. Candidates were compared to the positive control of the EF1a promoter, which had ˜70% GFP+ cells after two weeks of antibiotic selection, showing a distinct positive population in the fluorescence histogram. The GFP+ gate (i.e., flow cytometry fluorescence threshold for GFP+ cells) was set to encompass 1% of untransfected cells and then applied to all samples. […] Such a result appears as a bimodal distribution on a histogram, with a peak below the gate threshold (i.e., GFP negative cell population) and a peak above it (i.e., the distinct GFP positive population mentioned above). […] In this study, a % GFP+ of at least 50% is considered to reflect the existence of a second population in the histograms, and thus a binary indicator of promoter function. […] The median GFP intensity of the GFP+ population was used a measure of the strength of the promoter, and normalized to the Ef1a positive control as shown in FIG. 2C.
This aligns with previous observations that the RNPA2B1 promoter is much stronger than that of CBX3 (Zhang, F., et al. (2010) Mol Ther, 18, 1640-1649 (7)). However, the RNPA2B1 promoter in A2UCOE is only 30% as strong as the EF1α promoter. […]

B1: Candidate 6: Full length SRF-UCOE, SEQ ID NO:1; region between human SURF1 and SURF2 including first introns, chr9 (nucleic acid, listed as Homo sapiens)
DNA: GCACACGACCACAATTCCACTGAAAGCATTTTAATACGGAACTTGTCACTCCCAGGGAGCCTCCGCTCAGCCGGCAGTTGGTTCATTTCAATCCCCACGACAACCCTTCAAAGTGCAGGGCAGACAGCAGGTGGCTCTGCCCAGGCGCCTGGATCACAGCCCGGCCTGCAGCCCTCACCTGGGCGCGGGGAGACCCTGAGGACGCTCCTCCAGGCGGCGCTGGCCGGGGCCTGCGGACACGGACGGGCGGGCTGAGCTCCGGGACCCCTCCCCGCGCCCCGCACCCCGCACCCCGCACCCCGCACCCCGCACCCGGCGCTCACCCGTCCCAGCCCCGCCGCCCGCAGCCCCAGCTGCAACGCAGCCACCGCCGCCATCGCACCCGGCCCCGCGGGCGCTTCCGGGACGCAGGAGGCATCTGCATCCGGGGCGCCGCTGAGTCCCGCCCAGAGCCCCGCCCCCGGCTCCAGGTTCTGCGAGCGGCTTCCGCCGGGCTGCTCCGCGGGCGCGTCGGCCATGAGCGAGTTGCCGGGCGACGTGCGGGCGTTTCTGCGGGAGCACCCGAGCCTGCGGCTCCAGACGGACGCCCGCAAGGTTCGCAGCGCGGGAGGGGAACGGAGTGGCGGAGAAGGGCGCAGTTGGGATGAGGGGCTGAGGGGAGGGCAGGGGAGAGGAGAGGGCAGGGGAGAGGGGAGAGGGGAGAGCAGGAGAGAGGGGAAGGCAGGGGAGAGGGCGCGGCGGGATCAGGGGAGGAGAGGGAAGGGGGCGCGGCAGGAGGGGGCACCAGGGAGCGGAGCCCTGGCCCTCCTGACGTCCTGCCCGCCCACGCGTCCGCAGGTGAGGTGCATCCTGACAGGTCACGAGCTGCCCTGCCGCCTGCCGGAGCTCCAGGTCTACACCCGCGGCAAAAAGTACCAGCGGCTGGTCCGCGCCTCCCCGGCCTTCGACTATGCAGAGTTCGAGCCGCACATCGTGCCCAGCACCAAGAACCCGTAGGTGGTC
[1]; 19 days
  silencing resistance / stable expression relative to the negative (Ef1α-only) control: significant improvement in stable expression
[1]; over 19 days after puromycin removal, flow cytometry
  loss in percent GFP positive cells over the time period: about 6%
P19 cells; at least 50% GFP+ = second population
  peaks in fluorescence histogram (binary indicator of promoter function): only one peak
P19 cells; promoterless GFP construct, after two weeks of antibiotic selection, one representative example
  % GFP+ cells, representative flow cytometry example: 1.99%
P19 cells
  inherent promoter activity: did not exhibit inherent promoter activity
P19 cells; listed as SRF-UCOE element
  inherent promoter activity: does not initiate transcription
